Measured values from US20260167721A1 (ABLEXIS, published 2026).

B1: CD3 × CD33-BspAb85 (bispecific antibody)
scFv-Fc: EVQLVESGGGLVKPGGSLRLSCAASGFTFSSYSMNWVRQAPGKCLEWVSSISRSSGYIFYADSVKGRFTISRDNAKNSLYLQMNSLRAEDTAVYYCVRERVGAGFDYWGQGTLVTVSSGGGGSGGGGSGGGGSGGGGSNFMLTQPHSVSESPGKTVAISCTRSSGSIASNYVQWYQQRPGSSPTAVIYEDNQRPSGVPDRFSGSIDSSSNSAFLTISGLKTEDEADYYCQSYDSSNRVFGCGTKLTVLGGGGSDKTHTCPPCPAPEFEGGPSVFLFPPKPKDTLMISRTPEVTCVVVDVSHEDPEVKFNWYVDGVEVHNAKTKPREEQYNSTYRVVSVLTVLHQDWLNGKEYKCKVSNKALPASIEKTISKAKGQPREPQVYTLPPCREEMTKNQVSLWCLVKGFYPSDIAVEWESNGQPENNYKTTPPVLDSDGSFFLYSKLTVDKSRWQQGNVFSCSVMHEALHNHYTQKSLSLSPGK
heavy: EVQLVQSGAEVKKPGSSVKVSCKASGYTITDSNIHWVRQAPGQSLEWIGYIYPYNGGTDYNQKFKNRATLTVDNPTNTAYMELSSLRSEDTAFYYCVNGNPWLAYWGQGTLVTVSSASTKGPSVFPLAPSSKSTSGGTAALGCLVKDYFPEPVTVSWNSGALTSGVHTFPAVLQSSGLYSLSSVVTVPSSSLGTQTYICNVNHKPSNTKVDKRVEPKSCDKTHTCPPCPAPEFEGGPSVFLFPPKPKDTLMISRTPEVTCVVVDVSHEDPEVKFNWYVDGVEVHNAKTKPREEQYNSTYRVVSVLTVLHQDWLNGKEYKCKVSNKALPASIEKTISKAKGQPREPQVCTLPPSREEMTKNQVSLSCAVKGFYPSDIAVEWESNGQPENNYKTTPPVLDSDGSFFLVSKLTVDKSRWQQGNVFSCSVMHEALHNRFTQKSLSLSPGK
light: DIQLTQSPSTLSASVGDRVTITCRASESLDNYGIRFLTWFQQKPGKAPKLLMYAASNQGSGVPSRFSGSGSGTEFTLTISSLQPDDFATYYCQQTKEVPWSFGQGTKVEVKRTVAAPSVFIFPPSDEQLKSGTASVVCLLNNFYPREAKVQWKVDNALQSGNSQESVTEQDSKDSTYSLSSTLTLSKADYEKHKVYACEVTHQGLSSPVTKSFNRGEC
notes: KiH heterodimer
B2: CD3 × CD33-BspAb95 (bispecific antibody)
chain 1: NFMLTQPHSVSESPGKTVTISCTRSSGSIASNYVQWYQQRPGSSPTTVIYEDNQRSSGVPDRFSGSIDSSSNSASLTISGLKTEDEADYYCQSYDRSNRVFGCGTKLTVLGGGGSGGGGSGGGGSGGGGSEVQLVESGGGLVKPGGSLRLSCSASGFTFSTYTMNWVRQAPGKCLEWVSSISKSSSYIYYTDSVKGRFTISRDNAKNSLYLQMNSLRAEDTAVYYCARERRTLAFDIWGQGTMVTVSSDKTHTCPPCPAPEFEGGPSVFLFPPKPKDTLMISRTPEVTCVVVDVSHEDPEVKFNWYVDGVEVHNAKTKPREEQYNSTYRVVSVLTVLHQDWLNGKEYKCKVSNKALPASIEKTISKAKGQPREPQVYTLPPCREEMTKNQVSLWCLVKGFYPSDIAVEWESNGQPENNYKTTPPVLDSDGSFFLYSKLTVDKSRWQQGNVFSCSVMHEALHNHYTQKSLSLSPGK
chain 2: B1 heavy
chain 3: B1 light
B3: CD3 × CD33-BspAb91 (bispecific antibody)
chain 1: DIQMTQSPSTLSASVGDRVTITCRASQSISSWLAWFQQKTGKAPKLLIYKASSLESGVPSRFSGSGSGTEFTLTISSLQPDDFATYYCQQYISYSWTFGCGTKVEIKGGGGSGGGGSGGGGSGGGGSEVQLVESGGGLVQRGGSLRLSCAASGFTFSNYWMSWVRQAPGKCLEWVANIKEDGSEKYYVDSVKGRFTISRDNAKHSLYLQMNSLRAEDTAVYYCARERRTGYFDYWGQGTLVTVSSDKTHTCPPCPAPEFEGGPSVFLFPPKPKDTLMISRTPEVTCVVVDVSHEDPEVKFNWYVDGVEVHNAKTKPREEQYNSTYRVVSVLTVLHQDWLNGKEYKCKVSNKALPASIEKTISKAKGQPREPQVYTLPPCREEMTKNQVSLWCLVKGFYPSDIAVEWESNGQPENNYKTTPPVLDSDGSFFLYSKLTVDKSRWQQGNVFSCSVMHEALHNHYTQKSLSLSPGK
chain 2: B1 heavy
chain 3: B1 light
B4: CD3 × CD33-BspAb94 (bispecific antibody)
chain 1: NFMLTQPHSVSESPGKTVTISCTRSSGSIASNYVQWYQQRPGSSPTTVIYEDNQRPSGVPDRFSGSIDSSSNSASLTISGLKTEDEADYYCQSYDSSNRVFGCGTKLTVLGGGGSGGGGSGGGGSGGGGSEVQLVESGGGLVKPGGSLRLSCAASGFTFSSYTMNWVRQAPGKCLEWVSSITTSSSYIYYADSVKGRFTISRDNAKNSLYLQMNSLRAEDTAVYYCARVTFDAFDIWGQGTMVTVSSDKTHTCPPCPAPEFEGGPSVFLFPPKPKDTLMISRTPEVTCVVVDVSHEDPEVKFNWYVDGVEVHNAKTKPREEQYNSTYRVVSVLTVLHQDWLNGKEYKCKVSNKALPASIEKTISKAKGQPREPQVYTLPPCREEMTKNQVSLWCLVKGFYPSDIAVEWESNGQPENNYKTTPPVLDSDGSFFLYSKLTVDKSRWQQGNVFSCSVMHEALHNHYTQKSLSLSPGK
chain 2: B1 heavy
chain 3: B1 light
B5: CD3 × CD33-BspAb86 (bispecific antibody)
scFv-Fc: EVQLVESGGGLVKPGGSLRLSCAASGFTFSSYSMNWVRQAPGKCLEWVSSISRSGTYIYYADSVKGRFTISRDNAKNSLYLQMNSLRAEDTAVYYCARERWELLYFDYWGQGTLVTVSSGGGGSGGGGSGGGGSGGGGSQTVVTQEPSLTVSPGGTVTLTCASSTGAVTSGYYPNWFQQKPGQAPRALIYSTSNKHSWTPARFSGSLLGGKAALTLSGVQPEDEAEYYCLLYYGGAYVFGCGTKVTVLGGGGSDKTHTCPPCPAPEFEGGPSVFLFPPKPKDTLMISRTPEVTCVVVDVSHEDPEVKFNWYVDGVEVHNAKTKPREEQYNSTYRVVSVLTVLHQDWLNGKEYKCKVSNKALPASIEKTISKAKGQPREPQVYTLPPCREEMTKNQVSLWCLVKGFYPSDIAVEWESNGQPENNYKTTPPVLDSDGSFFLYSKLTVDKSRWQQGNVFSCSVMHEALHNHYTQKSLSLSPGK
heavy: B1 heavy
light: B1 light
notes: KiH heterodimer
B6: CD3 × CD33-BspAb93 (bispecific antibody)
chain 1: NFMLTQPHSVSESPGKTVTISCTRSSGSIASKYVQWYQQRPGSSPTTVIYEDNQRPSGVPDRFSGSIDSSSNSASLTISGLKTEDEADYYCQSYYSNNRVFGCGTKLTVLGGGGSGGGGSGGGGSGGGGSEVQLVESGGGLVQPGGSLRLSCAASGFTFSRYSMNWVRQAPGKCLEWVSYISRSSTTIYYADSVKGRFTISRDNAKNSLYLQMNSLRDEDAAVYYCARERWELLYFDYWGQGTLVTVSSDKTHTCPPCPAPEFEGGPSVFLFPPKPKDTLMISRTPEVTCVVVDVSHEDPEVKFNWYVDGVEVHNAKTKPREEQYNSTYRVVSVLTVLHQDWLNGKEYKCKVSNKALPASIEKTISKAKGQPREPQVYTLPPCREEMTKNQVSLWCLVKGFYPSDIAVEWESNGQPENNYKTTPPVLDSDGSFFLYSKLTVDKSRWQQGNVFSCSVMHEALHNHYTQKSLSLSPGK
chain 2: B1 heavy
chain 3: B1 light
B7: CD3 × CD33-BspAb90 (bispecific antibody)
scFv-Fc: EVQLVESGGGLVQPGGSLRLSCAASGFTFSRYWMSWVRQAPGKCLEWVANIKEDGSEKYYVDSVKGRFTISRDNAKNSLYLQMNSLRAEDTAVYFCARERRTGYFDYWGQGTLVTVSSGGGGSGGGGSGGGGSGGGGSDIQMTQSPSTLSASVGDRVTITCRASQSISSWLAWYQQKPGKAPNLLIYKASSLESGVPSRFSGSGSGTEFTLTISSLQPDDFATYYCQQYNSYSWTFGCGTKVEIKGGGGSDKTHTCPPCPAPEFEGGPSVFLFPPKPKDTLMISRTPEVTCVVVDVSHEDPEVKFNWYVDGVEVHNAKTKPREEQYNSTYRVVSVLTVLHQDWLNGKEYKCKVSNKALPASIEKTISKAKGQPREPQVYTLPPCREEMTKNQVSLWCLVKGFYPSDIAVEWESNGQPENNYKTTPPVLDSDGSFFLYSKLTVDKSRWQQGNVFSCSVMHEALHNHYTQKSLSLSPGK
heavy: B1 heavy
light: B1 light
notes: KiH heterodimer
B8: CD3 × CD33-BspAb89 (bispecific antibody)
scFv-Fc: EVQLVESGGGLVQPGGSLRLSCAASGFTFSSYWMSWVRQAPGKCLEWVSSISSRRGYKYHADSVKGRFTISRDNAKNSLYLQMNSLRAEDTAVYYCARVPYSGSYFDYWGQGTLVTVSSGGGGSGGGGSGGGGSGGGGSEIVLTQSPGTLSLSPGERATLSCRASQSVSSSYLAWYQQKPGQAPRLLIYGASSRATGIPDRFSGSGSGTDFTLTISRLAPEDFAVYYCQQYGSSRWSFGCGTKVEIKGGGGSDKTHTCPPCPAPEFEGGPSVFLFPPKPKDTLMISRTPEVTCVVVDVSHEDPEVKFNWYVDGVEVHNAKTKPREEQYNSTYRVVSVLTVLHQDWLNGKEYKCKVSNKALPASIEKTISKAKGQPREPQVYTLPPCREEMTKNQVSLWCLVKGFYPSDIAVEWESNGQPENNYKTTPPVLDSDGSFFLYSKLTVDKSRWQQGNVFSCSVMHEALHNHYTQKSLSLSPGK
heavy: B1 heavy
light: B1 light
notes: KiH heterodimer

Assays:
[1] = molecular target: T1, human CD3 (TCR/CD3 complex on the cell surface) (human, UniProt P07766 23-207; P04234 22-171; P09693 23-182); test: flow cytometry, Jurkat WT cells, 10 ug/mL
T1 construct: whole, on cells; Native CD3 on human Pan-T cells or Jurkat wild-type cells; also called CD3 on Pan-T cells; CD3 on Jurkat WT cells

[2] = molecular target: T1, human CD3 (TCR/CD3 complex on the cell …); test: flow cytometry, Jurkat WT cells, 1 ug/mL
[3] = molecular target: T1, human CD3 (TCR/CD3 complex on the cell …); test: flow cytometry, Jurkat WT gMFI over Jurkat KO gMFI, 1 ug/mL
[4] = molecular target: T1, human CD3 (TCR/CD3 complex on the cell …); test: flow cytometry, Pan-T cells, 1 ug/mL
[5] = molecular target: T1, human CD3 (TCR/CD3 complex on the cell …); test: flow cytometry, Pan-T cells, 10 ug/mL
[6] = molecular target: T1, human CD3 (TCR/CD3 complex on the cell …); test: flow cytometry, Jurkat WT gMFI over Jurkat KO gMFI, 10 ug/mL

T1 sequence (P07766 23-207, chain 1 of 3): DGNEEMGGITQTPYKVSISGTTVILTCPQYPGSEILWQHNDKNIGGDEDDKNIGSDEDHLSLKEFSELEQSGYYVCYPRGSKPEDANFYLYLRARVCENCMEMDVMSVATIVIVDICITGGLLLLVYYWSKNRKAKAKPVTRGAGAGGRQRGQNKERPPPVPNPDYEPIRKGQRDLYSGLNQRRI
T1 sequence (P04234 22-171, chain 2 of 3): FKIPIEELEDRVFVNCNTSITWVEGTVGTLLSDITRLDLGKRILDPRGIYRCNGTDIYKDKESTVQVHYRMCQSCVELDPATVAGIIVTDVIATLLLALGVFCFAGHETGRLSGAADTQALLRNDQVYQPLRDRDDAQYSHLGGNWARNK
T1 sequence (P09693 23-182, chain 3 of 3): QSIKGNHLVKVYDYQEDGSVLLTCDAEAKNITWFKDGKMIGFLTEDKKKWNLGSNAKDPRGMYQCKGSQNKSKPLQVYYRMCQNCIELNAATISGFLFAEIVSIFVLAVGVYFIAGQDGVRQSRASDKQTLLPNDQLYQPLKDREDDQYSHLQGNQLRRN

| Binder | gMFI [1] [gMFI] | gMFI [2] [gMFI] | Jurkat WT/KO (Fold) [3] [fold] | % Positive [4] [%] | gMFI [4] [gMFI] | % Positive [5] [%] | gMFI [5] [gMFI] | Jurkat WT/KO (Fold) [6] [fold] |
| --- | --- | --- | --- | --- | --- | --- | --- | --- |
| B1 | 32000 | 18900 | 6.2 | 99.4 | 96000 | 99.7 | 249000 | 9.9 |
| B2 | 39500 | 33900 | 10.5 | 99.7 | 112000 | 99.8 | 232000 | 12.5 |
| B3 | 31600 | 8110 | 3.7 | 94.6 | 18500 | 99.4 | 127000 | 10.4 |
| B4 | 2190 | 1830 | 0.8 | 2.6 | 2050 | 4.4 | 2600 | 1.1 |
| B5 | 9550 | 3180 | 1.4 | 35.2 | 5410 | 92.4 | 25400 | 3.9 |
| B6 | 28400 | 16200 | 5.6 | 98.2 | 29600 | 99.8 | 135000 | 9.5 |
| B7 | 19400 | 4480 | 1.9 | 83.8 | 11600 | 98.1 | 78400 | 7.5 |
| B8 | 1750 | 1840 | 0.8 | 0.6 | 1830 | 1.7 | 1960 | 0.9 |
